Measured values reported in US20200087373A1 (UNIVERSITY OF COPENHAGEN, published 2020).
Ends that are not written are not given here. * marks the point of attachment. C16 diacid = O=C(O)CCCCCCCCCCCCCCC(=O)*

T1: human GIP receptor (human, UniProt P48546 22-466)
T1 sequence (looked up): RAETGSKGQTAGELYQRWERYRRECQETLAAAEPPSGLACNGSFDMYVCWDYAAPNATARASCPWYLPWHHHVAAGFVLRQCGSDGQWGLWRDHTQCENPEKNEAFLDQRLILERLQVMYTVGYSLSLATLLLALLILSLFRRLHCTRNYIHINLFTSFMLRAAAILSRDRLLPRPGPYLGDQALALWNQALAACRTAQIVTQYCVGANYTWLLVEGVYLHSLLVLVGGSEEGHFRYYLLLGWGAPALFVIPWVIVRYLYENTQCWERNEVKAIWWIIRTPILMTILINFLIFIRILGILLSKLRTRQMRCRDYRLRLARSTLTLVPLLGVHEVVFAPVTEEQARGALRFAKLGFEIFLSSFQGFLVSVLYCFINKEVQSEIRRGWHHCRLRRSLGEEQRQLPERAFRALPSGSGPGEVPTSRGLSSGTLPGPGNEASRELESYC

B1: AT177 [hGIP(5-30)NH2[D15K]-C16diacid/15] (peptide)
peptide: TFISDYSIAMK(C16 diacid)KIHQQDFVNWLLAQK-NH2
modifications: N-terminus assumed
SMILES: CC[C@H](C)[C@H](NC(=O)[C@H](CO)NC(=O)[C@H](Cc1ccc(O)cc1)NC(=O)[C@H](CC(=O)O)NC(=O)[C@H](CO)NC(=O)[C@@H](NC(=O)[C@H](Cc1ccccc1)NC(=O)[C@@H](N)[C@@H](C)O)[C@@H](C)CC)C(=O)N[C@@H](C)C(=O)N[C@@H](CCSC)C(=O)N[C@@H](CCCCNC(=O)CCCCCCCCCCCCCCC(=O)O)C(=O)N[C@@H](CCCCN)C(=O)N[C@H](C(=O)N[C@@H](Cc1c[nH]cn1)C(=O)N[C@@H](CCC(N)=O)C(=O)N[C@@H](CCC(N)=O)C(=O)N[C@@H](CC(=O)O)C(=O)N[C@@H](Cc1ccccc1)C(=O)N[C@H](C(=O)N[C@@H](CC(N)=O)C(=O)N[C@@H](Cc1c[nH]c2ccccc12)C(=O)N[C@@H](CC(C)C)C(=O)N[C@@H](CC(C)C)C(=O)N[C@@H](C)C(=O)N[C@@H](CCC(N)=O)C(=O)N[C@@H](CCCCN)C(N)=O)C(C)C)[C@@H](C)CC
B2: AT180 [hGIP(5-30)NH2[Q20K]-C16diacid/20] (peptide)
peptide: TFISDYSIAMDKIHQK(C16 diacid)DFVNWLLAQK-NH2
modifications: N-terminus assumed
SMILES: CC[C@H](C)[C@H](NC(=O)[C@H](CO)NC(=O)[C@H](Cc1ccc(O)cc1)NC(=O)[C@H](CC(=O)O)NC(=O)[C@H](CO)NC(=O)[C@@H](NC(=O)[C@H](Cc1ccccc1)NC(=O)[C@@H](N)[C@@H](C)O)[C@@H](C)CC)C(=O)N[C@@H](C)C(=O)N[C@@H](CCSC)C(=O)N[C@@H](CC(=O)O)C(=O)N[C@@H](CCCCN)C(=O)N[C@H](C(=O)N[C@@H](Cc1c[nH]cn1)C(=O)N[C@@H](CCC(N)=O)C(=O)N[C@@H](CCCCNC(=O)CCCCCCCCCCCCCCC(=O)O)C(=O)N[C@@H](CC(=O)O)C(=O)N[C@@H](Cc1ccccc1)C(=O)N[C@H](C(=O)N[C@@H](CC(N)=O)C(=O)N[C@@H](Cc1c[nH]c2ccccc12)C(=O)N[C@@H](CC(C)C)C(=O)N[C@@H](CC(C)C)C(=O)N[C@@H](C)C(=O)N[C@@H](CCC(N)=O)C(=O)N[C@@H](CCCCN)C(N)=O)C(C)C)[C@@H](C)CC
B3: AT182 [hGIP(5-30)NH2[F22K]-C16diacid/22] (peptide)
peptide: TFISDYSIAMDKIHQQDK(C16 diacid)VNWLLAQK-NH2
modifications: N-terminus assumed
SMILES: CC[C@H](C)[C@H](NC(=O)[C@H](CO)NC(=O)[C@H](Cc1ccc(O)cc1)NC(=O)[C@H](CC(=O)O)NC(=O)[C@H](CO)NC(=O)[C@@H](NC(=O)[C@H](Cc1ccccc1)NC(=O)[C@@H](N)[C@@H](C)O)[C@@H](C)CC)C(=O)N[C@@H](C)C(=O)N[C@@H](CCSC)C(=O)N[C@@H](CC(=O)O)C(=O)N[C@@H](CCCCN)C(=O)N[C@H](C(=O)N[C@@H](Cc1c[nH]cn1)C(=O)N[C@@H](CCC(N)=O)C(=O)N[C@@H](CCC(N)=O)C(=O)N[C@@H](CC(=O)O)C(=O)N[C@@H](CCCCNC(=O)CCCCCCCCCCCCCCC(=O)O)C(=O)N[C@H](C(=O)N[C@@H](CC(N)=O)C(=O)N[C@@H](Cc1c[nH]c2ccccc12)C(=O)N[C@@H](CC(C)C)C(=O)N[C@@H](CC(C)C)C(=O)N[C@@H](C)C(=O)N[C@@H](CCC(N)=O)C(=O)N[C@@H](CCCCN)C(N)=O)C(C)C)[C@@H](C)CC
B4: AT178 [hGIP(5-30)NH2[I17K]-C16diacid/17] (peptide)
peptide: TFISDYSIAMDKK(C16 diacid)HQQDFVNWLLAQK-NH2
modifications: N-terminus assumed
SMILES: CC[C@H](C)[C@H](NC(=O)[C@H](CO)NC(=O)[C@H](Cc1ccc(O)cc1)NC(=O)[C@H](CC(=O)O)NC(=O)[C@H](CO)NC(=O)[C@@H](NC(=O)[C@H](Cc1ccccc1)NC(=O)[C@@H](N)[C@@H](C)O)[C@@H](C)CC)C(=O)N[C@@H](C)C(=O)N[C@@H](CCSC)C(=O)N[C@@H](CC(=O)O)C(=O)N[C@@H](CCCCN)C(=O)N[C@@H](CCCCNC(=O)CCCCCCCCCCCCCCC(=O)O)C(=O)N[C@@H](Cc1c[nH]cn1)C(=O)N[C@@H](CCC(N)=O)C(=O)N[C@@H](CCC(N)=O)C(=O)N[C@@H](CC(=O)O)C(=O)N[C@@H](Cc1ccccc1)C(=O)N[C@H](C(=O)N[C@@H](CC(N)=O)C(=O)N[C@@H](Cc1c[nH]c2ccccc12)C(=O)N[C@@H](CC(C)C)C(=O)N[C@@H](CC(C)C)C(=O)N[C@@H](C)C(=O)N[C@@H](CCC(N)=O)C(=O)N[C@@H](CCCCN)C(N)=O)C(C)C
B5: AT179 [hGIP(5-30)NH2[Q19K]-C16diacid/19] (peptide)
peptide: TFISDYSIAMDKIHK(C16 diacid)QDFVNWLLAQK-NH2
modifications: N-terminus assumed
SMILES: CC[C@H](C)[C@H](NC(=O)[C@H](CO)NC(=O)[C@H](Cc1ccc(O)cc1)NC(=O)[C@H](CC(=O)O)NC(=O)[C@H](CO)NC(=O)[C@@H](NC(=O)[C@H](Cc1ccccc1)NC(=O)[C@@H](N)[C@@H](C)O)[C@@H](C)CC)C(=O)N[C@@H](C)C(=O)N[C@@H](CCSC)C(=O)N[C@@H](CC(=O)O)C(=O)N[C@@H](CCCCN)C(=O)N[C@H](C(=O)N[C@@H](Cc1c[nH]cn1)C(=O)N[C@@H](CCCCNC(=O)CCCCCCCCCCCCCCC(=O)O)C(=O)N[C@@H](CCC(N)=O)C(=O)N[C@@H](CC(=O)O)C(=O)N[C@@H](Cc1ccccc1)C(=O)N[C@H](C(=O)N[C@@H](CC(N)=O)C(=O)N[C@@H](Cc1c[nH]c2ccccc12)C(=O)N[C@@H](CC(C)C)C(=O)N[C@@H](CC(C)C)C(=O)N[C@@H](C)C(=O)N[C@@H](CCC(N)=O)C(=O)N[C@@H](CCCCN)C(N)=O)C(C)C)[C@@H](C)CC
B6: AT183 [hGIP(5-30)NH2[V23K]-C16diacid/23] (peptide)
peptide: TFISDYSIAMDKIHQQDFK(C16 diacid)NWLLAQK-NH2
modifications: N-terminus assumed
SMILES: CC[C@H](C)[C@H](NC(=O)[C@H](CO)NC(=O)[C@H](Cc1ccc(O)cc1)NC(=O)[C@H](CC(=O)O)NC(=O)[C@H](CO)NC(=O)[C@@H](NC(=O)[C@H](Cc1ccccc1)NC(=O)[C@@H](N)[C@@H](C)O)[C@@H](C)CC)C(=O)N[C@@H](C)C(=O)N[C@@H](CCSC)C(=O)N[C@@H](CC(=O)O)C(=O)N[C@@H](CCCCN)C(=O)N[C@H](C(=O)N[C@@H](Cc1c[nH]cn1)C(=O)N[C@@H](CCC(N)=O)C(=O)N[C@@H](CCC(N)=O)C(=O)N[C@@H](CC(=O)O)C(=O)N[C@@H](Cc1ccccc1)C(=O)N[C@@H](CCCCNC(=O)CCCCCCCCCCCCCCC(=O)O)C(=O)N[C@@H](CC(N)=O)C(=O)N[C@@H](Cc1c[nH]c2ccccc12)C(=O)N[C@@H](CC(C)C)C(=O)N[C@@H](CC(C)C)C(=O)N[C@@H](C)C(=O)N[C@@H](CCC(N)=O)C(=O)N[C@@H](CCCCN)C(N)=O)[C@@H](C)CC
B7: AT181 [hGIP(5-30)NH2[D21K]-C16diacid/21] (peptide)
peptide: TFISDYSIAMDKIHQQK(C16 diacid)FVNWLLAQK-NH2
modifications: N-terminus assumed
SMILES: CC[C@H](C)[C@H](NC(=O)[C@H](CO)NC(=O)[C@H](Cc1ccc(O)cc1)NC(=O)[C@H](CC(=O)O)NC(=O)[C@H](CO)NC(=O)[C@@H](NC(=O)[C@H](Cc1ccccc1)NC(=O)[C@@H](N)[C@@H](C)O)[C@@H](C)CC)C(=O)N[C@@H](C)C(=O)N[C@@H](CCSC)C(=O)N[C@@H](CC(=O)O)C(=O)N[C@@H](CCCCN)C(=O)N[C@H](C(=O)N[C@@H](Cc1c[nH]cn1)C(=O)N[C@@H](CCC(N)=O)C(=O)N[C@@H](CCC(N)=O)C(=O)N[C@@H](CCCCNC(=O)CCCCCCCCCCCCCCC(=O)O)C(=O)N[C@@H](Cc1ccccc1)C(=O)N[C@H](C(=O)N[C@@H](CC(N)=O)C(=O)N[C@@H](Cc1c[nH]c2ccccc12)C(=O)N[C@@H](CC(C)C)C(=O)N[C@@H](CC(C)C)C(=O)N[C@@H](C)C(=O)N[C@@H](CCC(N)=O)C(=O)N[C@@H](CCCCN)C(N)=O)C(C)C)[C@@H](C)CC

How the values were obtained:
[1] = molecular target: T1, human GIP receptor; assay: cell-based or functional assay
[2] = molecular target: T1, human GIP receptor; assay: ratio of Ki with 2% HSA to Ki without HSA, 125I-hGIP competition binding on hGIPR COS-7 cells;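 also: nonspecific binding was defined as radioligand signal on cells lacking the receptor transfection, with cell lysates measured after washes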
Description: (§1) After incubation, the cells were washed twice in ice-cold binding buffer (+/−2% HSA) and lysed using 200 mM NaOH with 1% SDS for 30 min. Nonspecific binding was determined as the binding of radioactive ligand to untransfected cells.

[3] = molecular target: T1, human GIP receptor; assay: 125I-hGIP(1-42) competition binding, COS-7 cells expressing human GIPR, without HSA;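 also: nonspecific binding defined as radioligand bound to cells lacking the transfected receptor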
Description: as §1

[4] = molecular target: T1, human GIP receptor; assay: 125I-hGIP(1-42) competition binding, COS-7 cells expressing human GIPR, with 2% HSA;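 also: nonspecific signal taken as radioligand bound to untransfected cells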
Description: as §1

Binder	cAMP accumulation Fold (fold change from GIP(5-30)NH2) [1]	cAMP accumulation IC50 [1]	cAMP accumulation logIC50 [1]	Fold (Ki + HSA / Ki - HSA) [2]	Ki [3]	Ki [4]
B1	1.3 fold	37.2 nM	-7.43 log(M)	3.8 fold	117 nM	444 nM
B2	1.7 fold	46.8 nM	-7.33 log(M)	6.4 fold	82.8 nM	533 nM
B3	21.9 fold	603 nM	-6.22 log(M)	1.4 fold	841 nM	1190 nM
B4	1 fold	27.5 nM	-7.56 log(M)	4.5 fold	54.3 nM	243 nM
B5	2.1 fold	57.5 nM	-7.24 log(M)	6.3 fold	378 nM	2380 nM
B6	55 fold	1510 nM	-5.82 log(M)	4.4 fold	5350 nM	23300 nM
B7	0.5 fold	12.6 nM	-7.9 log(M)	3.6 fold	33.3 nM	120 nM
